Substitutions are numbered along the chain they refer to. Numbers in names are those of the source.

First the molecules themselves.
T1: HipB72 (Escherichia coli, UniProt P23873 1-72, del73-88)
T1 sequence: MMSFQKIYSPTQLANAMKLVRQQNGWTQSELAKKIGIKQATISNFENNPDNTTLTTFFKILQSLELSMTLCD

T2: HipB (Escherichia coli, UniProt P23873 1-88)
T2 sequence: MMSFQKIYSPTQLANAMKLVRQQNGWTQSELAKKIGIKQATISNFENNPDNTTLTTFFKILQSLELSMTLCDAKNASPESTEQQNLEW

T3: HipB(W88A) (Escherichia coli, UniProt P23873 1-88, W88A)
T3 sequence: T2 sequence with W88A

T4: HipA;HipB (Escherichia coli;Escherichia coli, UniProt P23874;P23873 1-440;1-88, |)
T4 sequence 1: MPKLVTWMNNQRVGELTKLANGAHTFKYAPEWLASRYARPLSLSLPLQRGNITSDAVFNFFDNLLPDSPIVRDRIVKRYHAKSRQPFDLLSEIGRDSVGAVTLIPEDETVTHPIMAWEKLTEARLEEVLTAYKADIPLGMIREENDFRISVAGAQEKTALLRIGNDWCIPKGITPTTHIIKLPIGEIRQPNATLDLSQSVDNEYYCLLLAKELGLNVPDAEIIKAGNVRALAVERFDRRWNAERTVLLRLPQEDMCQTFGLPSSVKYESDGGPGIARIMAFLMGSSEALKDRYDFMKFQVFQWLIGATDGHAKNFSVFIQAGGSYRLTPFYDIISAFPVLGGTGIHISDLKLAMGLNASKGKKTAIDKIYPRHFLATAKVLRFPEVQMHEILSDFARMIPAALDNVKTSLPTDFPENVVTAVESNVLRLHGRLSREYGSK
T4 sequence 2: T2 sequence

B1: HipA toxin (wild type HipA protein) (enzyme, E. coli, UniProt P23874 1-440, looked up)
chain: T4 sequence 1
B2: hipBA O1O2 operator (dsDNA)
DNA 1: TTATCCGCTTAAGGGGATATTATAAGTTTTATCCTTTAGTGAGGATAA
DNA 2: TTATCCTCACTAAAGGATAAAACTTATAATATCCCCTTAAGCGGATAA
B3: HipB antitoxin, wild type (natural protein, E. coli, UniProt P23873 1-88, looked up)
chain: T2 sequence
notes: HipB, antitoxin and repressor of the hipBA operon of Escherichia coli, 88 residues; also called HipB WT; pET15b-HipB; source: E. coli BL21(DE3)pLysS, purified (Ni-NTA)
B4: HipB(W88A) (natural protein, E. coli, UniProt P23873 1-88, looked up)
chain: T2 sequence with W88A
notes: HipB of Escherichia coli with the C-terminal tryptophan 88 changed to alanine, made by site-directed mutagenesis in pET15b-hipB; Strain KLE911; also called HipB(W88A) protein; pET15b-hipB w88a; source: E. coli BL21(DE3)pLysS, purified (Ni-NTA)
B5: HipB72 (C-terminal truncation of HipB lacking the last 16 residues) (domain or fragment, E. coli, UniProt P23873 1-72, looked up)
chain: T1 sequence
notes: Strain KLE912; also called HipB72 C-terminal truncation protein; pET15b-hipB72; source: E. coli BL21(DE3)pLysS, purified (Ni-NTA)

For series [1], the target named is B3. The series is described as follows: cell-based or functional assay.
The target in another series is T1, HipB72. The series is described as follows: fluorescence polarization; 1 nM DNA; 20 mM Tris-HCl pH 7.5, 100 mM NaCl, 5% glycerol, 10 C, 1 nM labeled DNA. As to conditions: protein: recombinant; tags: His6 (Ni-NTA purified); chain copies: 2; label: 5'-6-carboxyfluorescein on top strand; blunt. For orientation: Polarisation of emitted light reports the rotation of a fluorescent probe.

The target in a further series is T2, HipB. The series is described as above. As to conditions: protein: recombinant; tags: His6 (Ni-NTA purified, pET15b); chain copies: 2; label: 5'-6-carboxyfluorescein on top strand; blunt.
For a further series, the target named is T3, HipB(W88A). The series is described as above. As to conditions: protein: recombinant; tags: His6 (Ni-NTA purified); chain copies: 2; label: 5'-6-carboxyfluorescein on top strand; blunt.
Another series concerns the target T4, HipA;HipB. Briefly: fluorescence polarization; HipA titrated into DNA saturated with 50 nM HipB; Kd is formally HipA for DNA-bound HipB; 20 mM Tris-HCl pH 7.5, 100 mM NaCl, 5% glycerol, 10 C, 1 nM labeled DNA. As to conditions: protein: recombinant;recombinant; tags: His6 (Ni-NTA purified, pET28a);His6 (Ni-NTA purified, pET15b); chain copies: 2;4; label: 5'-6-carboxyfluorescein on top strand; blunt.

Series [2] addresses B1. Briefly: fluorescence polarisation; HipA titrated into 50 nM HipB (or HipB(W88A), HipB72) pre-incubated 2 min with 1 nM 5'-6-carboxyfluorescein-labelled hipBA O1O2 DNA; 20 mM Tris-HCl pH 7.5, 100 mM NaCl, 5% glycerol; 10 °C; the affinity is formally between HipA and HipB bound to the DNA. As to conditions: both partners purified.
Series [3] addresses B1. The series is described as above. As to conditions: both partners purified. The source holds these as a separate data set.

Regarding B1, the “half-life of His6-HipB (0.48 µM) in the in vitro degradation assay with His6-Lon (0.6 µM) when purified His6-HipA (0.48 µM) is added, against lysozyme as control protein” value in series [1] was greater than 3.33 h. Regarding B2, the Kd in the series with HipB72 came out at 0.4 ± 0.1 nM; with HipB it was 0.6 ± 0.1 nM; with HipB(W88A), 0.9 ± 0.4 nM; with HipA;HipB, 1000 ± 600 nM. As for B3, in series [2], the Kd was found to be 1000 ± 600 nM.

Take B4: binding in series [2] was characterised by a dissociation constant (Kd) of 1200 ± 300 nM. For the molecule B5, the binding result in series [3] is “binds”.

Broadly, the Kd is the free concentration of one partner at which half of the binding sites on the other are occupied at equilibrium, for simple one-to-one binding.

The record behind these values is paper PMC3376134, “Regulation of the Escherichia coli HipBA Toxin-Antitoxin System by Proteolysis” (PLoS ONE, 2012).
